Publication PMC9692976, “Characterization of a Glycolipid Synthase Producing α-Galactosylceramide in Bacteroides fragilis” (International Journal of Molecular Sciences, 2022)

Tests used:
[1] = biological target: T1, αGalCer_GT (BF9343_3149; αCerGal_GT) (Bacteroides fragilis, UniProt A0A380YRQ3); assay: HPLC with fluorescence detection of αGalCer-NBD, initial rates; format: biochemical; conditions: substrate inhibition constant; second site; 1.25 mM UDP-Gal, Cer-NBD solubilized with equimolar BSA, pH 7.5, 37 °C; labelled compound
T1 construct: full length, SUMO fusion at N-terminus and Strep-tag (C-terminal in Results; Methods also says N-terminal Strep-tag), tags kept, codon-optimised gene, E. coli BL21(DE3) Star, StrepTrap purified
T1 sequence (A0A380YRQ3 entry or part of it): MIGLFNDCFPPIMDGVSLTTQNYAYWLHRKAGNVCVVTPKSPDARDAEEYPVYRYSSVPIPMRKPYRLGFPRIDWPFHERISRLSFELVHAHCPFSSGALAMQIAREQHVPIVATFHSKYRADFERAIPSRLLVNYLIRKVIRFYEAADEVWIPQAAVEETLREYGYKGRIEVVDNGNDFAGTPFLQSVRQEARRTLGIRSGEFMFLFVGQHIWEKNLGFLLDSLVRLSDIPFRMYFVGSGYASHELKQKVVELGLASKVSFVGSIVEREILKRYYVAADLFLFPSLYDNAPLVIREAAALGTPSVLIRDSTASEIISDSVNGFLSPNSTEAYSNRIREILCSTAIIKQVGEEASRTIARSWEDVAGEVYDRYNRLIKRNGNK

[2] = test system: O=c1ccn([C@@H]2O[C@H](COP(=O)(O)OP(=O)(O)O[C@H]3O[C@H](CO)[C@H](O)[C@H](O)[C@H]3O)[C@@H](O)[C@H]2O)c(=O)[nH]1; assay: purified protein; conditions: 25 µM Cer-NBD with equimolar BSA, pH 7.5, 37 °C, fit with substrate inhibition
[3] = test system: CCCCCCCCCCCCC/C=C/[C@@H](O)[C@H](CO)NC(=O)CCCCCNc1ccc([N+](=O)[O-])c2nonc12; assay: purified protein; conditions: 1.25 mM UDP-Gal, Cer-NBD solubilized with equimolar BSA, pH 7.5, 37 °C, fit with substrate inhibition, labelled compound

Compound	KI [1] [µM]	Km [2] [µM]	Km [3] [µM]
CCCCCCCCCCCCC/C=C/[C@@H](O)[C@H](CO)NC(=O)CCCCCNc1ccc([N+](=O)[O-])c2nonc12 [Cer-NBD, N-[6-[(7-nitro-2-1,3-benzoxadiazol-4-yl)amino]hexanoyl]-D-erythro-sphin-gosine]	161	–	–
αGalCer_GT (BF9343_3149; αCerGal_GT) (Bacteroides fragilis NCTC 9343)	–	218	4.6
